Test results reported in patent US7074761B1, “Peptides and production and use thereof” (Takeda Chemical Ind., Ltd., priority 1996, dated 2006).
Where a SMILES comes first, the peptide text is derived from it. Bridges are numbered along the chain shown (N, C = ends). Where no end group is shown, it is not given here.

Tests used:
[1] = molecular target: T1, human SSTR4 (Homo sapiens, UniProt P31391); assay: [125I]-somatostatin binding inhibition, SSTR4 CHO cell membrane fraction; details: 25° C., 60 minutes
T1 construct: expressed in transfected cells; host or cells: CHO(dhfr-) cells, clone SSTR4-1-2, plasmid pA-1-11-SSTR4 (vector pAKKO-111)
Procedure: CHO(dhfr^−) cells (1×10^6 cells) were cultured on HAM F12 medium containing 10% fetal bovine serum in a dish with a diameter of 8 cm for 24 hours. Into these cells was introduced 10 μg of the human SSTR4 DNA expression plasmid pA-1-11-SSTR4 obtained as described above in (2) by the calcium phosphate method (Cell Phect Transfection Kit; Pharmacia). At 24 hours after transfection, the medium was exchanged for DMEM containing 10% dialyzed fetal bovine serum, and cells forming a colony on this medium (namely DHFR^+ cells) were selected. Further, the cells selected were treated by the limiting dilution method for cloning from a single cell, and the cells thus cloned were measured for their somatostatin receptor protein expression ability by the binding assay described in Reference Example 1 (3). In this manner, a cell line with high somatostatin-binding activity, SSTR4-1-2, was selected.
The human somatostatin receptor expressing CHO cell lines SSTR1-8-3, SSTR2-HS5-9, SSTR3-15-19, SSTR4-1-2 and SSTR5-32-4 (10^9 cells each) were respectively suspended in phosphate buffered physiological saline supplemented with 5 mM EDTA (PBS-EDTA) and centrifuged. To each cell pellet was added 10 ml of cell homogenation buffer (10 mM NaHCO3, 5 mM EDTA, pH=7.5), followed by homogenation with a Polytron homogenizer. The homogenate was centrifuged at 400×g for 15 minutes, and the supernatant obtained was further centrifuged at 100,000×g for 1 hour to give a membrane fraction as a precipitate. […]
(§1) The membrane fractions prepared in Reference Example 6 were each diluted to 3 μg/ml with assay buffer. […] After filtration, the radioactivity of [^125I]-somatostatin remaining on the filter paper was measured. For each test substance, the binding inhibition percentage (%) was calculated according to the formula: PBM=(B−NSB)/(B0−NSB)×100 (where PBM: percent maximum binding; B: radioactivity when the test sample is added; B0: maximum bound radioactivity; NSB: non-specifically bound radioactivity). […]

[2] = molecular target: T2, human SSTR5 (Homo sapiens, UniProt P35346); assay: [125I]-somatostatin binding inhibition, SSTR5 CHO cell membrane fraction; details: 25° C., 60 minutes
T2 construct: expressed in transfected cells; host or cells: CHO(dhfr-) cells, clone SSTR5-32-4, plasmid pA-1-11-SSTR5 (vector pAKKO-111)
Procedure: CHO(dhfr^−) cells (1×10^6 cells) were cultured on HAM F12 medium containing 10% fetal bovine serum in a dish with a diameter of 8 cm for 24 hours. Into these cells was introduced 10 μg of the human SSTR5 cDNA expression plasmid pA-1-11-SSTR5 obtained as described above in (2) by the calcium phosphate method (Cell Phect Transfection Kit; Pharmacia). At 24 hours after transfection, the medium was exchanged for DMEM containing 10% dialyzed fetal bovine serum, and cells forming a colony on this medium (namely DHFR^+ cells) were selected. Further, the cells selected were treated by the limiting dilution method for cloning from a single cell, and the cells thus cloned were measured for their somatostatin receptor protein expression ability by the binding assay described in Reference Example 1 (3). In this manner, a cell line with high somatostatin-binding activity. SSTR5-32-4, was selected. […]
as §1

[3] = molecular target: T3, human somatostatin receptor protein subtype 1 (SSTR1) (human, UniProt P30872 1-391); assay: displacement of 200 pM [125I]-somatostatin from membrane fraction of CHO cells expressing the human receptor; filter binding, Hill plot
T3 construct: whole, on cells; also called cell line SSTR1-8-3
Procedure: (§2) The membrane fractions prepared in Reference Example 6 were each diluted to 3 µg/ml with assay buffer. […] After 60 minutes of reaction at 25° C., each reaction mixture was suction-filtered using a polyethyleneimine-treated Whatman glass filter (GF-B). […] For each test substance, the binding inhibition percentage (%) was calculated according to the formula:
(§3) PBM=(B-NSB)/(B_0-NSB)×100 (where PBM: percent maximum binding; B: radioactivity when the test sample is added; B_0: maximum bound radioactivity; NSB: non-specifically bound radioactivity).

[4] = molecular target: T4, human somatostatin receptor protein subtype 2 (SSTR2) (human, UniProt P30874 1-369); assay: as above
T4 construct: whole, on cells; also called cell line SSTR2-HS5-9
Procedure: as §2, §3

[5] = molecular target: T5, human somatostatin receptor protein subtype 3 (SSTR3) (human, UniProt P32745 1-418); assay: as above
T5 construct: whole, on cells; also called cell line SSTR3-15-19
Procedure: as §2, §3

[6] = molecular target: T4, human somatostatin receptor protein …; assay: cell-based or functional assay
[7] = molecular target: T5, human somatostatin receptor protein …; assay: cell-based or functional assay
[8] = molecular target: human somatostatin receptor protein subtype 4 (SSTR4) (human, UniProt P31391 1-388); assay: cell-based or functional assay
[9] = molecular target: T6, human somatostatin receptor protein subtype 5 (SSTR5) (human, UniProt P35346 1-364); assay: cell-based or functional assay
[10] = molecular target: T6, human somatostatin receptor protein …; assay: displacement of 200 pM [125I]-somatostatin from membrane fraction of CHO cells expressing the human receptor; filter binding, Hill plot
Procedure: as §2, §3

T5 sequence (P32745 whole entry): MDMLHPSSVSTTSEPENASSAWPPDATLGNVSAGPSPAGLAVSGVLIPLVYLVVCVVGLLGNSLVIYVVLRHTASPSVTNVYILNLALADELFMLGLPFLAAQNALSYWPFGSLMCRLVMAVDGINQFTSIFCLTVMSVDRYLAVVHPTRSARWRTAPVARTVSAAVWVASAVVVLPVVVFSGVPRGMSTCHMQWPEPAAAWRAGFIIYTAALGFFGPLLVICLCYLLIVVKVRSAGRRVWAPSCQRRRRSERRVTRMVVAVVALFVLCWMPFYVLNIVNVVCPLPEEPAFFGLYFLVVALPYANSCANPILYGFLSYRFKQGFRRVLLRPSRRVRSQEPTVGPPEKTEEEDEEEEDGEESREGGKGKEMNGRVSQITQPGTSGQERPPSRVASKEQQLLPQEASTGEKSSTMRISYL
T6 sequence (P35346 whole entry): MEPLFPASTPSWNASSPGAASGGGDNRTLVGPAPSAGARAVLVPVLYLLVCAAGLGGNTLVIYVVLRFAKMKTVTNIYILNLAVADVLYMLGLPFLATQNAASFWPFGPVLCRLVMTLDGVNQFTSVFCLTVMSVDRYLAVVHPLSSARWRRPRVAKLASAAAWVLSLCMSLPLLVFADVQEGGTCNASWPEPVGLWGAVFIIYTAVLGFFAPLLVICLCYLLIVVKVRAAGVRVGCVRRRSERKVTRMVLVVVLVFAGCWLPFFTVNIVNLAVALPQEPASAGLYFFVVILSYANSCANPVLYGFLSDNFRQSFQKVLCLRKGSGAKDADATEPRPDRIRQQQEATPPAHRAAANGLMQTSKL
T4 sequence (P30874 whole entry): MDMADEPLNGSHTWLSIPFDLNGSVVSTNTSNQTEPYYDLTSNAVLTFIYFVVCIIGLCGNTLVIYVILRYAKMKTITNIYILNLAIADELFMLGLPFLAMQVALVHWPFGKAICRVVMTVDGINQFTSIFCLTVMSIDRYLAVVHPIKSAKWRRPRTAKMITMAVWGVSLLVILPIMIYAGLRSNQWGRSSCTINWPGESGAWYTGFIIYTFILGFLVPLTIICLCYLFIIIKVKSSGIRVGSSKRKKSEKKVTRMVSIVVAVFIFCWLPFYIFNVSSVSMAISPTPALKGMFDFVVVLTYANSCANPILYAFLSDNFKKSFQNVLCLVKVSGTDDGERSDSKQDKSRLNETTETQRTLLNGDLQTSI
T2 sequence (P35346 whole entry): as the sequence (P35346 whole entry) above
T1 sequence (P31391 whole entry): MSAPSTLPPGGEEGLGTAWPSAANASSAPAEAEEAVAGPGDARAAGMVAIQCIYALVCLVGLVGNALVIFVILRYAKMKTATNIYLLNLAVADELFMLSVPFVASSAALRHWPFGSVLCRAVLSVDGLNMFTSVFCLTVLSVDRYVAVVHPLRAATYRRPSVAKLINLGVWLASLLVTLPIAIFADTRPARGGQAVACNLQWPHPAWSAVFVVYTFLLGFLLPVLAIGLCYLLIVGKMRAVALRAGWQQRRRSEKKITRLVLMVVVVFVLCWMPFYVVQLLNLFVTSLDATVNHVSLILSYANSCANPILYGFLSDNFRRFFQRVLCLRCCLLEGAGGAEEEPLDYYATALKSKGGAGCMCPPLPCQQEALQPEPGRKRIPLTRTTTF
Sequence of human somatostatin receptor protein subtype 4 (SSTR4) (P31391 whole entry): as above
T3 sequence (P30872 whole entry): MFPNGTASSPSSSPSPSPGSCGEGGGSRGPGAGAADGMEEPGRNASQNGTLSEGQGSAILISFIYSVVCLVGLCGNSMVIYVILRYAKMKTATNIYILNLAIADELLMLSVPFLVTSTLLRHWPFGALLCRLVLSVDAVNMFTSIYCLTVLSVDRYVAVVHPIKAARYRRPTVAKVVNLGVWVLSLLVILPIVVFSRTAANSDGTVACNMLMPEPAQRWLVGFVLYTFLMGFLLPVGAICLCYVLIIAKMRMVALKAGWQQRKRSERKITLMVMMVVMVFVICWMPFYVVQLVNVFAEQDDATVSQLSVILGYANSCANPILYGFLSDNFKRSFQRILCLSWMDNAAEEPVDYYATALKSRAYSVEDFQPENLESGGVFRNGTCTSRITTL

IC50 [1] [nM]	IC50 [2] [nM]	IC50 [3] [nM]	IC50 [4] [nM]	IC50 [5] [nM]	ED50 of inhibition of forskolin-stimulated intracellular cAMP accumulation [6] [nM]	ED50 of inhibition of forskolin-stimulated intracellular cAMP accumulation [7] [nM]	ED50 of inhibition of forskolin-stimulated intracellular cAMP accumulation [8] [nM]	ED50 of inhibition of forskolin-stimulated intracellular cAMP accumulation [9] [nM]	IC50 [10] [nM]	Molecule
0.5	0.5	–	–	–	–	–	–	–	–	C[C@@H](O)[C@@H]1NC(=O)[C@H](CCCCN)NC(=O)[C@H](Cc2c[nH]c3ccccc23)NC(=O)[C@H](Cc2ccccc2)NC(=O)[C@H](Cc2ccccc2)NC(=O)[C@H](CC(N)=O)NC(=O)[C@H](CCCNC(=N)N)NC(=O)[C@@H](N)CSSC[C@@H](C(=O)N[C@@H](CCCCN)C(=O)O)NC(=O)[C@H](CO)NC(=O)[C@H](CO)NC(=O)[C@H](Cc2ccccc2)NC1=O [hCS-13] (H-CRNFFWKTFSSCK-OH; disulfide 1-12; N-terminus and C-terminus assumed)
–	–	6	0.3	0.7	–	–	–	–	–	CRNFFWKTFSSCK (disulfide 1-12) [deletion type human peptide hCS-13]
–	–	–	0.6	0.6	5	1	0.1	0.2	0.4	DRMPCRNFFWKTFSSCK (disulfide 5-16) [human peptide hCS-17]
–	–	–	0.8	0.9	7	1	0.2	0.2	–	MPCRNFFWKTFSSCK (disulfide 3-14) [deletion type human peptide hCS-15]
